{"source": "paper PMC10366546", "biological_target": "Ostreolysin A6 (Pleurotus ostreatus)", "experiment": "high-speed atomic force microscopy; OlyA6 added (final around 0.35 uM, 5.8 ug/ml) to a d17:1/12:0-CPE/Chol (1:1) supported lipid bilayer on mica, PBS 10 mM pH 7.5, room temperature; self-assembly on the membrane", "note": "Several values for one entry are separate records, joined by “and”; a condition that tells them apart may be missing. Equal entries are not always repeated."}
{"substance": "Ostreolysin A6 (natural protein)", "values": [{"measurement": "stoichiometry N", "result": "6 and 2"}]}
